Measurements from patent US20180273587A1 (AILERON THERAPEUTICS, published 2018).
Starred links: 1 amine or outer side, 2 acyl side, 3 side chain; linkers in the order of their positions; H or OH if unused. Positions of bridges follow the written chain, without caps; N, C: chain ends. Non-standard residues stand in square brackets, D forms with d. hhL = hhLeu, CC(C)CCC[C@H](N[*:1])C(=O)[*:2]; Phe(4-F) = N[C@@H](Cc1ccc(F)cc1)C(=O)O; tBuAla = CC(C)(C)C[C@H](N)C(=O)O; R8 = C=CCCCCCC[C@@](C)(N)C(=O)O; αMeL = CC(C)C[C@](C)(N)C(=O)O; Chg = N[C@H](C(=O)O)C1CCCCC1; hLeu = CC(C)CC[C@H](N)C(=O)O; S5 = C=CCCC[C@](C)(N)C(=O)O

B1: SEQ ID NO: 1701 (peptide)
peptide: Ac-IWIAQALR[R8][tBuAla]GDAFN[S5]YYA-NH2
modifications: staple 9-16
SMILES: CC[C@H](C)[C@H](NC(C)=O)C(=O)N[C@@H](Cc1c[nH]c2ccccc12)C(=O)N[C@H](C(=O)N[C@@H](C)C(=O)N[C@@H](CCC(N)=O)C(=O)N[C@@H](C)C(=O)N[C@@H](CC(C)C)C(=O)N[C@@H](CCCNC(=N)N)C(=O)N[C@]1(C)CCCCCCC=CCCC[C@@](C)(C(=O)N[C@@H](Cc2ccc(O)cc2)C(=O)N[C@@H](Cc2ccc(O)cc2)C(=O)N[C@@H](C)C(N)=O)NC(=O)[C@H](CC(N)=O)NC(=O)[C@H](Cc2ccccc2)NC(=O)[C@H](C)NC(=O)[C@H](CC(=O)O)NC(=O)CNC(=O)[C@H](CC(C)(C)C)NC1=O)[C@@H](C)CC
B2: SEQ ID NO: 1705 (peptide)
peptide: Ac-[αMeL]WIAQALR[R8]IGDAFN[S5]YYA-NH2
modifications: staple 9-16
SMILES: CC[C@H](C)[C@H](NC(=O)[C@H](Cc1c[nH]c2ccccc12)NC(=O)[C@](C)(CC(C)C)NC(C)=O)C(=O)N[C@@H](C)C(=O)N[C@@H](CCC(N)=O)C(=O)N[C@@H](C)C(=O)N[C@@H](CC(C)C)C(=O)N[C@@H](CCCNC(=N)N)C(=O)N[C@]1(C)CCCCCCC=CCCC[C@@](C)(C(=O)N[C@@H](Cc2ccc(O)cc2)C(=O)N[C@@H](Cc2ccc(O)cc2)C(=O)N[C@@H](C)C(N)=O)NC(=O)[C@H](CC(N)=O)NC(=O)[C@H](Cc2ccccc2)NC(=O)[C@H](C)NC(=O)[C@H](CC(=O)O)NC(=O)CNC(=O)[C@H]([C@@H](C)CC)NC1=O
B3: SEQ ID NO: 1719 (peptide)
peptide: Ac-HWIAAALR[R8]IGDAFN[S5]YYA-NH2
modifications: staple 9-16
SMILES: CC[C@H](C)[C@H](NC(=O)[C@H](Cc1c[nH]c2ccccc12)NC(=O)[C@H](Cc1c[nH]cn1)NC(C)=O)C(=O)N[C@@H](C)C(=O)N[C@@H](C)C(=O)N[C@@H](C)C(=O)N[C@@H](CC(C)C)C(=O)N[C@@H](CCCNC(=N)N)C(=O)N[C@]1(C)CCCCCCC=CCCC[C@@](C)(C(=O)N[C@@H](Cc2ccc(O)cc2)C(=O)N[C@@H](Cc2ccc(O)cc2)C(=O)N[C@@H](C)C(N)=O)NC(=O)[C@H](CC(N)=O)NC(=O)[C@H](Cc2ccccc2)NC(=O)[C@H](C)NC(=O)[C@H](CC(=O)O)NC(=O)CNC(=O)[C@H]([C@@H](C)CC)NC1=O
B4: SEQ ID NO: 1706 (peptide)
peptide: Ac-IW[αMeL]AQALR[R8]IGDAFN[S5]YYA-NH2
modifications: staple 9-16
SMILES: CC[C@H](C)[C@H](NC(C)=O)C(=O)N[C@@H](Cc1c[nH]c2ccccc12)C(=O)N[C@@](C)(CC(C)C)C(=O)N[C@@H](C)C(=O)N[C@@H](CCC(N)=O)C(=O)N[C@@H](C)C(=O)N[C@@H](CC(C)C)C(=O)N[C@@H](CCCNC(=N)N)C(=O)N[C@]1(C)CCCCCCC=CCCC[C@@](C)(C(=O)N[C@@H](Cc2ccc(O)cc2)C(=O)N[C@@H](Cc2ccc(O)cc2)C(=O)N[C@@H](C)C(N)=O)NC(=O)[C@H](CC(N)=O)NC(=O)[C@H](Cc2ccccc2)NC(=O)[C@H](C)NC(=O)[C@H](CC(=O)O)NC(=O)CNC(=O)[C@H]([C@@H](C)CC)NC1=O
notes: also called Ac-IWAmLAQALR$r8IGDAFN$YYA-NH2
B5: SEQ ID NO: 1716 (peptide)
peptide: Ac-EWIAAALR[R8]IGDAFN[S5]YYA-NH2
modifications: staple 9-16
SMILES: CC[C@H](C)[C@H](NC(=O)[C@H](Cc1c[nH]c2ccccc12)NC(=O)[C@H](CCC(=O)O)NC(C)=O)C(=O)N[C@@H](C)C(=O)N[C@@H](C)C(=O)N[C@@H](C)C(=O)N[C@@H](CC(C)C)C(=O)N[C@@H](CCCNC(=N)N)C(=O)N[C@]1(C)CCCCCCC=CCCC[C@@](C)(C(=O)N[C@@H](Cc2ccc(O)cc2)C(=O)N[C@@H](Cc2ccc(O)cc2)C(=O)N[C@@H](C)C(N)=O)NC(=O)[C@H](CC(N)=O)NC(=O)[C@H](Cc2ccccc2)NC(=O)[C@H](C)NC(=O)[C@H](CC(=O)O)NC(=O)CNC(=O)[C@H]([C@@H](C)CC)NC1=O
B6: SEQ ID NO: 1711 (peptide)
peptide: Ac-IW[tBuAla]AQALR[R8]IGDAFN[S5]YYA-NH2
modifications: staple 9-16
SMILES: CC[C@H](C)[C@H](NC(C)=O)C(=O)N[C@@H](Cc1c[nH]c2ccccc12)C(=O)N[C@@H](CC(C)(C)C)C(=O)N[C@@H](C)C(=O)N[C@@H](CCC(N)=O)C(=O)N[C@@H](C)C(=O)N[C@@H](CC(C)C)C(=O)N[C@@H](CCCNC(=N)N)C(=O)N[C@]1(C)CCCCCCC=CCCC[C@@](C)(C(=O)N[C@@H](Cc2ccc(O)cc2)C(=O)N[C@@H](Cc2ccc(O)cc2)C(=O)N[C@@H](C)C(N)=O)NC(=O)[C@H](CC(N)=O)NC(=O)[C@H](Cc2ccccc2)NC(=O)[C@H](C)NC(=O)[C@H](CC(=O)O)NC(=O)CNC(=O)[C@H]([C@@H](C)CC)NC1=O
notes: also called Ac-IWTbaAQALR$r8IGDAFN$YYA-NH2
B7: SEQ ID NO: 1717 (peptide)
peptide: Ac-RWIAAALR[R8]IGDAFN[S5]YYA-NH2
modifications: staple 9-16
SMILES: CC[C@H](C)[C@H](NC(=O)[C@H](Cc1c[nH]c2ccccc12)NC(=O)[C@H](CCCNC(=N)N)NC(C)=O)C(=O)N[C@@H](C)C(=O)N[C@@H](C)C(=O)N[C@@H](C)C(=O)N[C@@H](CC(C)C)C(=O)N[C@@H](CCCNC(=N)N)C(=O)N[C@]1(C)CCCCCCC=CCCC[C@@](C)(C(=O)N[C@@H](Cc2ccc(O)cc2)C(=O)N[C@@H](Cc2ccc(O)cc2)C(=O)N[C@@H](C)C(N)=O)NC(=O)[C@H](CC(N)=O)NC(=O)[C@H](Cc2ccccc2)NC(=O)[C@H](C)NC(=O)[C@H](CC(=O)O)NC(=O)CNC(=O)[C@H]([C@@H](C)CC)NC1=O
B8: SEQ ID NO: 1718 (peptide)
peptide: Ac-KWIAAALR[R8]IGDAFN[S5]YYA-NH2
modifications: staple 9-16
SMILES: CC[C@H](C)[C@H](NC(=O)[C@H](Cc1c[nH]c2ccccc12)NC(=O)[C@H](CCCCN)NC(C)=O)C(=O)N[C@@H](C)C(=O)N[C@@H](C)C(=O)N[C@@H](C)C(=O)N[C@@H](CC(C)C)C(=O)N[C@@H](CCCNC(=N)N)C(=O)N[C@]1(C)CCCCCCC=CCCC[C@@](C)(C(=O)N[C@@H](Cc2ccc(O)cc2)C(=O)N[C@@H](Cc2ccc(O)cc2)C(=O)N[C@@H](C)C(N)=O)NC(=O)[C@H](CC(N)=O)NC(=O)[C@H](Cc2ccccc2)NC(=O)[C@H](C)NC(=O)[C@H](CC(=O)O)NC(=O)CNC(=O)[C@H]([C@@H](C)CC)NC1=O
B9: SEQ ID NO: 1713 (peptide)
peptide: Ac-IW[Chg]AQALR[R8]IGDAFN[S5]YYA-NH2
modifications: staple 9-16
SMILES: CC[C@H](C)[C@H](NC(C)=O)C(=O)N[C@@H](Cc1c[nH]c2ccccc12)C(=O)N[C@H](C(=O)N[C@@H](C)C(=O)N[C@@H](CCC(N)=O)C(=O)N[C@@H](C)C(=O)N[C@@H](CC(C)C)C(=O)N[C@@H](CCCNC(=N)N)C(=O)N[C@]1(C)CCCCCCC=CCCC[C@@](C)(C(=O)N[C@@H](Cc2ccc(O)cc2)C(=O)N[C@@H](Cc2ccc(O)cc2)C(=O)N[C@@H](C)C(N)=O)NC(=O)[C@H](CC(N)=O)NC(=O)[C@H](Cc2ccccc2)NC(=O)[C@H](C)NC(=O)[C@H](CC(=O)O)NC(=O)CNC(=O)[C@H]([C@@H](C)CC)NC1=O)C1CCCCC1
notes: also called Ac-IWChgAQALR$r8IGDAFN$YYA-NH2
B10: SEQ ID NO: 1710 (peptide)
peptide: Ac-IWIAQALR[R8]IGDAFN[S5]Y[Phe(4-F)]A-NH2
modifications: staple 9-16
SMILES: CC[C@H](C)[C@H](NC(C)=O)C(=O)N[C@@H](Cc1c[nH]c2ccccc12)C(=O)N[C@H](C(=O)N[C@@H](C)C(=O)N[C@@H](CCC(N)=O)C(=O)N[C@@H](C)C(=O)N[C@@H](CC(C)C)C(=O)N[C@@H](CCCNC(=N)N)C(=O)N[C@]1(C)CCCCCCC=CCCC[C@@](C)(C(=O)N[C@@H](Cc2ccc(O)cc2)C(=O)N[C@@H](Cc2ccc(F)cc2)C(=O)N[C@@H](C)C(N)=O)NC(=O)[C@H](CC(N)=O)NC(=O)[C@H](Cc2ccccc2)NC(=O)[C@H](C)NC(=O)[C@H](CC(=O)O)NC(=O)CNC(=O)[C@H]([C@@H](C)CC)NC1=O)[C@@H](C)CC
B11: SEQ ID NO: 1712 (peptide)
peptide: Ac-IW[hLeu]AQALR[R8]IGDAFN[S5]YYA-NH2
modifications: staple 9-16
SMILES: CC[C@H](C)[C@H](NC(C)=O)C(=O)N[C@@H](Cc1c[nH]c2ccccc12)C(=O)N[C@@H](CCC(C)C)C(=O)N[C@@H](C)C(=O)N[C@@H](CCC(N)=O)C(=O)N[C@@H](C)C(=O)N[C@@H](CC(C)C)C(=O)N[C@@H](CCCNC(=N)N)C(=O)N[C@]1(C)CCCCCCC=CCCC[C@@](C)(C(=O)N[C@@H](Cc2ccc(O)cc2)C(=O)N[C@@H](Cc2ccc(O)cc2)C(=O)N[C@@H](C)C(N)=O)NC(=O)[C@H](CC(N)=O)NC(=O)[C@H](Cc2ccccc2)NC(=O)[C@H](C)NC(=O)[C@H](CC(=O)O)NC(=O)CNC(=O)[C@H]([C@@H](C)CC)NC1=O
notes: also called Ac-IWhLAQALR$r8IGDAFN$YYA-NH2
B12: SEQ ID NO: 1702 (peptide)
peptide: Ac-IWIAQALR[R8][hhL]GDAFN[S5]YYA-NH2
modifications: staple 9-16
SMILES: CC[C@H](C)[C@H](NC(C)=O)C(=O)N[C@@H](Cc1c[nH]c2ccccc12)C(=O)N[C@H](C(=O)N[C@@H](C)C(=O)N[C@@H](CCC(N)=O)C(=O)N[C@@H](C)C(=O)N[C@@H](CC(C)C)C(=O)N[C@@H](CCCNC(=N)N)C(=O)N[C@]1(C)CCCCCCC=CCCC[C@@](C)(C(=O)N[C@@H](Cc2ccc(O)cc2)C(=O)N[C@@H](Cc2ccc(O)cc2)C(=O)N[C@@H](C)C(N)=O)NC(=O)[C@H](CC(N)=O)NC(=O)[C@H](Cc2ccccc2)NC(=O)[C@H](C)NC(=O)[C@H](CC(=O)O)NC(=O)CNC(=O)[C@H](CCCC(C)C)NC1=O)[C@@H](C)CC

Target: T1, MCL-1 (UniProt Q07820 172-327, limits assumed)
T1 construct: also called Myeloid cell leukemia 1
T1 sequence (Q07820 172-327 limits assumed): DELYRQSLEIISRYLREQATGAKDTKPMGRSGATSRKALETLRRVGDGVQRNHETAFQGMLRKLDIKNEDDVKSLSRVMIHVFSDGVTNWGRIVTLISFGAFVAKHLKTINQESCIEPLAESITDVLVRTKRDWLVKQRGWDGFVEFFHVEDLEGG
Experiment: Ki table, method not stated

| Binder | Ki [nM] |
| --- | --- |
| B1 | 13.7 |
| B2 | 5.2 |
| B3 | 3.6 |
| B4 | 19.8 |
| B5 | 2.2 |
| B6 | 10.9 |
| B7 | 4.5 |
| B8 | 3.9 |
| B9 | 4.6 |
| B10 | 4.8 |
| B11 | 3.7 |
| B12 | 34.6 |

Target: BCL-XL (UniProt Q07817 1-209)
Sequence (Q07817 1-209): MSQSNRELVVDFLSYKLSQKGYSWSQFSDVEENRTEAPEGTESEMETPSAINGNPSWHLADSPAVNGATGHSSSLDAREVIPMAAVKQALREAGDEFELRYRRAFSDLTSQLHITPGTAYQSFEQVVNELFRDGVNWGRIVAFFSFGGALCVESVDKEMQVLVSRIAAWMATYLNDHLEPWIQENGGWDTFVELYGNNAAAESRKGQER
Experiment: Ki table, method not stated

| Binder | Ki [nM] |
| --- | --- |
| B1 | 35.4 |
| B2 | 8.4 |
| B3 | 25.2 |
| B4 | 7.2 |
| B5 | 72 |
| B6 | 17.2 |
| B7 | 32.8 |
| B8 | 27.2 |
| B9 | 20.9 |
| B10 | 9.5 |
| B11 | 17 |
| B12 | 4 |

Target: BCL-2 (UniProt P10415 1-217, limits assumed)
Sequence (P10415 1-217 limits assumed): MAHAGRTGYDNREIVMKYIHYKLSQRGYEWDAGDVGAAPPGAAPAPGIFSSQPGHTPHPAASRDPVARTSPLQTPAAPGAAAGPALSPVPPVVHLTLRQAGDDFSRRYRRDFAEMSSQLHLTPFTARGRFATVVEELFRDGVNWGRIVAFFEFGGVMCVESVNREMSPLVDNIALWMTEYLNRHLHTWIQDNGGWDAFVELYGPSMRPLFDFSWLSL
Experiment: Ki table, method not stated

| Binder | Ki [nM] |
| --- | --- |
| B1 | 227 |
| B2 | 48.3 |
| B3 | 52 |
| B4 | 24.8 |
| B5 | 118 |
| B6 | 36.6 |
| B7 | 47.8 |
| B8 | 49.7 |
| B9 | 38.9 |
| B10 | 91.8 |
| B11 | 36.5 |
| B12 | 23.1 |
